Measurements reported in patent US20230190653A1, “METHOD FOR REDUCING OFF-TARGET UPTAKE OR ACCUMULATION OF AGENTS” (The Regents of the University of Colorado, A Body Corporate, priority 2021, published 2023).
Each block holds one molecule with its values, some of them ahead of it.

Key:
[1] = Direct injection of IFN-γ into tumors, persistence of cytokine levels; format: in vivo; settings: preliminary, data not shown
Description: In contrast to inflammatory cytokines (e.g., TNF-α, IFN-γ, IFN-α, IFN-β) that increase vascular permeability, IFN-λ works specifically on the endothelial/epithelial cells to strengthen barrier integrity and prevent viral invasion. […] Ultimately, the lack of a tightening response in the tumor epithelium allows nanoparticles unaltered access to the tumor upon repeat administration.

[2] = Particle size measurement (Malvern Zetasizer / dynamic light scattering); format: physicochemical; settings: approximately 150 kD
Procedure: Lipids were dissolved in chloroform and used to prepare liposomes comprised of sphingosine:cholesterol:DAPC at a mole ratio of 3:2:5 in water as previously described. Briefly, the lipid mixture was dried with nitrogen gas to achieve a thin film that was incubated under vacuum overnight before rehydration with distilled water and sonication to achieve clarity (1-2 min). Lactosylceramide or PEG-ceramide were included in the chloroform-lipid mixture and incorporated into liposomes at a 5% mole ratio as previously described. […] The diameters of these preparations were 237.9±7.5 (lactose) and 273.4±10.4 (PEG) nm as reported previously.
Sphingosine, cholesterol, 1,2-diarachidoyl-sn-glycero-3-phosphocholine (DAPC), and C16-PEG750-Ceramide were purchased from Avanti® Polar Lipids (Alabaster, Ala.) and used to prepare liposomes at a 3:2:4.5:0.5 mole ratio (respectively) as previously described. The liposomes preparations have an average diameter of 135 nm, a PDI of 0.137, and were prepared in 5% dextrose to adjust the tonicity of the injection solution. […] A Malvern Zetasizer Nano-ZS was used for all size measurements.
FITC-dextran was chosen for these studies since it is commonly used to quantify endothelial and epithelial cell barrier permeability.

[3] = tested on: IFNLR1 (interferon lambda receptor 1) gene expression; experiment: IFNLR1 gene expression by RT-qPCR in primary human liver epithelial cells; format: cell-based; settings: 24 hours treatment
Procedure: (§1) Interferon Lambda Receptor 1 (IFNλR1) mRNA Expression Quantification by Reverse Transcription-Polymerase Chain Reaction (RT-qPCR): Human Lung Microvascular Endothelial Cells (540-05A) (HLMVECs) purchased from Sigma-Aldrich® (Burlington, Mass.) were cultured and left untreated or treated with 100 ng/mL recombinant human IL-29 (R&D Systems® 1598-IL-025) or 100 ng/mL IL-28A/B (R&D Systems® 8417-IL-025/5259-IL-025) for 24 hours. […] After 24 hours, using TaqMan™ Fast Advanced Cells-to-CT™ kit purchased from Invitrogen™ (Waltham, Mass.), cells were collected according to manufacturer recommendations and IFNλR1 expression was quantified. PCR assay ID Hs00417120_ml (ThermoFisher Scientific™, Agawam, M A) was used to quantify IFNλR1 gene expression and PCR assay ID Hs03928985_g1 (ThermoFisher Scientific™, Agawam, M A) was used to quantify reference gene RNA18S5 expression.
(§2) To test the hypothesis that microvascular endothelial cells and liver epithelial cells respond to IFN-λ, real-time quantitative polymerase chain reaction (RT-qPCR) analysis was used to determine Interferon Lambda Receptor 1 (IFN λR1) gene expression in primary Human Lung Microvascular Endothelial Cells and primary Human Liver Epithelial Cells (TABLES 4 and 5). […] However, liver epithelial cells do express IFN λR1 and show an increase in IFN λR1 gene expression in response to IFN-λ and lipoplex treatment.

IFNLR1 gene expression = IFNLR1 gene expression by RT-qPCR in primary human lung microvascular endothelial cells; format: cell-based; settings: 24 hours treatment, 100 ng/mL
Procedure: as §1, §2

CT26 tumor-bearing mice = experiment: Doxil accumulation in organs and tumor after IFN-λ pre-treatment; format: in vivo, Balb/c mice
Description: Tumor Bearing Experiments: Prior to treatment, female immunocompetent Balb/c mice 6-10 weeks old were acquired from Jackson labs (Bar Harbor, Me.) and allowed to acclimate for one week. The mice were then inoculated in the right flank with approximately 1 million CT26 murine colon carcinoma cells (ATCC #CRL-2638). Tumors were allowed to grow for approximately 7 days or until tumor size reached at least 100 mm^3. […] Twenty-four hours after the dextran/Doxil® injections, animals were euthanized, and organs collected for dextran/drug accumulation analysis.
A standard curve of fluorescence for doxorubicin was determined through fluorescence measurements of a serially diluted stock solution of the Doxil® in 90% isopropyl alcohol (IPA) acidified with HCl to a final concentration of 0.075 M. Fluorescence measurements were conducted in a CellStar™ μClear™ 96-Well, Cell Culture-Treated, Flat-Bottom Microplate from Greiner Bio-One™ (Monroe, N.C.) at an excitation of 470 nm and emission of 595 nm using a Molecular Devices (San Jose, Calif.) SpectraMax® M5. […] The equation from the resulting standard curve of fluorescence from each specific organ was used to calculate the total amount of doxorubicin extracted from a corresponding Doxil® treated organ.
Organs collected from animals were immediately flash-frozen in liquid nitrogen and stored at −80° C. until analysis. […] Doxorubicin fluorescence of the extracted solution was then measured, and total doxorubicin accumulation was then calculated using the doxorubicin fluorescence standard curves described above. […]
To assess the effects of IFN-λ pre-treatment on Doxil® accumulation, mice were intravenously injected with either 100 μL of 1×PBS or 1 μg of IFN-λ in 100 μL 1×PBS. […] After an additional 24 hours following Doxil administration, tissues were harvested from experimental mice and the total Doxil accumulation in tissues was determined using the extraction method and standard curves described above. […]

Molecule: IFN-γ: interferon gamma injected directly into tumors
time cytokine levels are maintained in the tumor [1]: at least 4 h

hydrodynamic diameter [2]: approximately 100 nm
Molecule: FITC-dextran

B1: IL29: recombinant human IL-29 (R&D Systems 1598-IL-025) (protein, UniProt Q8IU54 20-200, looked up)
Interferon lambda-1: GPVPTSKPTTTGKGCHIGRFKSLSPQELASFKKARDALEESLKLKNWSCSSPVFPGNWDLRLLQVRERPVALEAELALTLKVLEAAAGPALEDVLDQPLHTLHHILSQLQACIQPQPTAGPRPRGRLHHWLHRLQEAPKKESAGCLEASVTFNLFRLLTRDLKYVADGNLCLRTSTHPEST
ΔΔCt ([3]; vs untreated): −1.092
2^-ΔΔCt (Relative fold-change compared to untreated) ([3]; 100 ng/mL cytokine or 1 μg/mL lipoplexes): 2.132
ΔCt mean ([3]; 100 ng/mL cytokine or 1 μg/mL lipoplexes, reference RNA18S5): 19.476
IFN λR1 expression in endothelial cells (IFNLR1 gene expression): no expression detected
ΔCt mean (IFNLR1 gene expression): No Amplification

B2: IFN-λ: recombinant mouse IFN-λ2 (R&D Systems, 4635-ML-025/CF) (protein, UniProt Q4VK74 20-193, looked up)
Interferon lambda-2: DPVPRATRLPVEAKDCHIAQFKSLSPKELQAFKKAKDAIEKRLLEKDLRCSSHLFPRAWDLKQLQVQERPKALQAEVALTLKVWENMTDSALATILGQPLHTLSHIHSQLQTCTQLQATAEPRSPSRRLSRWLHRLQEAQSKETPGCLEASVTSNLFRLLTRDLKCVANGDQCV
Doxil accumulation in liver, spleen vs PBS pretreatment (CT26 tumor-bearing mice; 1 μg IFN-λ iv 24 h before 10 mg/kg Doxil): reduction
Doxil accumulation in the skin, kidney, lungs, and heart vs PBS pretreatment (CT26 tumor-bearing mice; 1 μg IFN-λ iv 24 h before 10 mg/kg Doxil, tissues 24 h later): significantly reduces
Doxil accumulation in tumor and plasma vs PBS pretreatment (CT26 tumor-bearing mice; not statistically significant): increase
